Source: US9682013B2, “Pharmaceutical compositions comprising human antibodies to PCSK9” (SANOFI BIOTECHNOLOGY, priority 2011, dated 2017)

Legend:
[1] = test system: patients with Heterozygous Familial Hypercholesterolemia (HeFH) or other forms of primary hypercholesteremia (nonFH); assay: Study 3: randomized, placebo-controlled, multiple ascending dose trial of 316P in HeFH and nonFH; assay type: in vivo, human; settings: for mean % reduction in LDL-C on day 57: on top of statins, combined FH and nonFH populations
Excerpt: This is a randomized, double-blind, placebo-controlled, multiple ascending dose, multicenter clinical trial in subjects with primary hypercholesterolemia.
The objective of this study was to determine whether a fully human monoclonal antibody to PCSK9 (316P) is effective and safe as either a primary or adjunctive agent to lower LDL-C in patients with Heterozygous Familial Hypercholesterolemia (HeFH) or other forms of primary hypercholesteremia (nonFH). 61 adults with either documented HeFH (n=21) or nonFH (n=30), on diet plus stable atorvastatin therapy (atorvaRx) or nonFH (n=10) on diet alone enrolled in this clinical trial. Subjects on stable atorvastatin therapy had LDL-C≧2.6 mmol/L and those on diet alone had LDL-C≧3.4 mmol/L. 316P at doses of 50, 100 and 150 mg was administered subcutaneously (sc) at 1, 29 and 43 days. The primary endpoint was the incidence and severity of treatment emergent adverse events (TEAE). The primary efficacy endpoint was percent and absolute change in serum LDL-C from baseline to each visit. Additional endpoints included apolipoprotein (apo) B, total cholesterol, HDL-C, VLDL-C, and the ratio of apoB to apoA1. 109 patients were screened, and 61 patients were randomized (14 placebo, 47 316P) with 100% completing 148+/−7 days of treatment and follow up. Compared to the nonFH cohort, the FH group was younger (mean 40 vs. 52 yrs), had more males (81% vs. 57%) and was on higher doses of atorvastatin (52% on 40 mg vs. 3%). Baseline LDL-C was 3.45, 2.88 and 4.46 mmol/L in the FH, nonFH atorvaRx and nonFH diet only groups, respectively.

[2] = target: hPCSK9 (Homo sapiens, UniProt Q8NBP7); settings: unmutated hPCSK9; cited from earlier work
hPCSK9, sequence (Q8NBP7 153-692): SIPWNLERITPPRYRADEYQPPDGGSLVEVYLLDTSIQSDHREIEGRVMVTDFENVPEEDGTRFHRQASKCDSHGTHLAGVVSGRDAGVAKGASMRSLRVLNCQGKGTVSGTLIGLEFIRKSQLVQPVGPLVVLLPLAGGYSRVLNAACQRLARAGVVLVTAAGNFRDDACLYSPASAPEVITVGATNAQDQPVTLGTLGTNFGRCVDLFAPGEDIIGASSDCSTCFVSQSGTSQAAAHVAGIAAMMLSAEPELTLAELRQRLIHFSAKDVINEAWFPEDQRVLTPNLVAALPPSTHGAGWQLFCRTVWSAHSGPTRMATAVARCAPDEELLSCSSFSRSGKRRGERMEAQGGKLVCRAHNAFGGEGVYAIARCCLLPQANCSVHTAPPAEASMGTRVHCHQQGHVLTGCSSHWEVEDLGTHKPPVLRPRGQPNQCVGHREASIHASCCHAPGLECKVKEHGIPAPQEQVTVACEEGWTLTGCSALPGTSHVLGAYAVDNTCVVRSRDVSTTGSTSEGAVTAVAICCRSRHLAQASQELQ

[3] = target: hPCSK9 D238 mutated (Homo sapiens, UniProt Q8NBP7, D238R); settings: cited from earlier work
hPCSK9 D238 mutated, sequence (Q8NBP7 153-692 D238R): as the sequence (Q8NBP7 153-692) above, with D86R counted along it

316P: fully human anti-PCSK9 antibody comprising a HCVR as shown in SEQ ID NO: 90 and LCVR as shown in SEQ ID NO: 92 [Antibody 316P]
mean % reduction in LDL-C on day 57 ([1]; 50 mg sc at days 1, 29 and 43): 35.6%
mean % reduction in LDL-C on day 57 ([1]; 100 mg sc at days 1, 29 and 43): 50.2%
mean % reduction in LDL-C on day 57 ([1]; 150 mg sc at days 1, 29 and 43): 57.5%
HDL-C ([1]; 50, 100 and 150 mg sc): Favourable changes
apoA1 ([1]; 50, 100 and 150 mg sc): Favourable changes
liver function testing or other laboratory parameters ([1]; 50, 100 and 150 mg sc): No drug-related adverse effects
serious adverse events ([1]; 50, 100 and 150 mg sc): No serious adverse events
tolerability ([1]; 50, 100 and 150 mg sc): generally well-tolerated
response between FH and nonFH or those on or not on statin therapy ([1]; no statistical analysis performed): did not appear to be differences in response
Kd [2]: ~1 nM
T1/2 decrease ([3]; D238 mutated vs unmutated): > 30 fold
reduction in binding affinity ([3]; D238 mutated vs unmutated): > 400 fold
Kd ([3]; D238 mutated): ~410 nM
